Measured values published in US20170101469A1 (FOURTH MILITARY MEDICAL UNIVERSITY, published 2017).
Values belong to the binder of their own block, whether it stands above or below them.

Columns and labels:
[1] = molecular target: T1, human CD147 antigen (human, UniProt P35613-2 22-205, limits assumed); experiment: SPR (ProteOn XPR36), antibody immobilised on a GLC chip, human CD147 antigen injected at 0.375-6 nM, 25 C
T1 sequence (looked up): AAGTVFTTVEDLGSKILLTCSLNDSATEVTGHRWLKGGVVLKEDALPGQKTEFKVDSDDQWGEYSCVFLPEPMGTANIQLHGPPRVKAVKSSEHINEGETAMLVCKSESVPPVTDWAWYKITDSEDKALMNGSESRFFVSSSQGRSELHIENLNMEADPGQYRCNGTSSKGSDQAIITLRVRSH
Experimental: (§1) The affinity (KD) for the binding of human CD147 antigen to selected antibodies was measured by Surface plasmon resonance analysis on a multi-SPR array system (ProteOn XPR36™, Bio-Rad). Data analysis was performed using ProteOn Manager Software (Bio-Rad). Briefly, the running buffer PBST (0.005% Tween-20 in PBS) was used continuously throughout the entire experiment at 25° C. A ProteOn GLC sensor chips (Bio-Rad) was activated for 6 min using a mixture of 0.2M EDC and 5 mM sulfo-NHS at a flow rate of 20 μl/min, followed by diluting 260 μl of 10 μg/mL each antibody in 10 mM acetate buffer at pH 4.5. The surface of the sensor chip was then deactivated with 150 μl of IM Ethanolamine Hydrochloride (pH 8.5). The sensor surface was regenerated through a wash (about 3 min) with HBS-EP buffer until the baseline was restored. A reference cell without antibodies was prepared by a similar procedure. 5 different concentrations of human CD147 antigen (0.375, 0.75, 1.5, 3, and 6 nM) were injected in channels 1 to 5, respectively, at flow rate of 50 μl/min, 3 min. A reference channel was prepared in the same manner without injection of CD147 antigen. The SPR binding responses were collected and analyzed using the ProteOn data manager program.
Two sets of experiments were performed, in the first set of experiments, the human CD147 binding affinity of HAb18 and Metuzumab were compared (data shown in FIG. 3A), in the second set of experiments the human CD147 binding affinity of cHAb18 and Metuzumab were compared (data shown in FIG. 3B).

[2] = molecular target: T1, human CD147 antigen; experiment: SPR, ProteOn XPR36, antibody amine-coupled to GLC chip, human CD147 0.375-6 nM as analyte, 25 C; first set of experiments (FIG. 3A)
Experimental: as §1, with “program. […]” for “program.”

[3] = molecular target: T1, human CD147 antigen; experiment: SPR, ProteOn XPR36, antibody amine-coupled to GLC chip, human CD147 0.375-6 nM as analyte, 25 C; second set of experiments (FIG. 3B)
Experimental: as §1, with “program. […]” for “program.”

- Kd [1]: 0.362 nM
- koff [1]: 0.000417 s⁻¹
- kon [1]: 1.15e+06 M⁻¹ s⁻¹
- Kd [2]: 0.321 nM
- Kd [3]: 0.429 nM
B1: Metuzumab (antibody, human IgG1, kappa, V domains shown)
VH: EVKLEESGGGLVQPGGSMKLSCVASGFTFSDAWMDWVRQSPEKGLEWVAEIRSKANNHAPYYTESVKGRFTISRDDSKSIIYLQMNNLRAEDTGIYYCTRDSTATHWGQGTLVTVSA
VL: SIVMTQTPTFLVVSAGDRVTITCKASQSVINDVAWYQQKPGQSPKLLIFYASNRNTGVPDRFTGSGYGTDFTFTISTVQAEDLAVYFCQQDYSPPFTFGSGTKLEIKR
modifications: N-linked Mannose-5 oligosaccharide in the Fc region, no fucose or xylose residue detected (site not numbered in the filing)
notes: Human-mouse chimeric IgG1 made in acetyl-glucosamine transferase deficient CHO K1 MAGE1.5 cells; only the glycoform differs; Residues 1-16 are left out on that basis; also called HcHAb18; glycosylation modified chimeric antibody Metuzumab

- Kd [3]: 0.475 nM
B2: cHAb18 (antibody, human IgG1, kappa, V domains shown)
VH: B1 VH
VL: B1 VL
modifications: N-linked fucosylated oligosaccharides, G0F, G1F and G1F' glycoforms (site not numbered in the filing)
notes: Human-mouse chimeric IgG1 made in CHO K1 cells; also called chimeric antibody cHAb18; cHAb18 mAb

- Kd [1]: 0.321 nM
- koff [1]: 0.000351 s⁻¹
- kon [1]: 1.09e+06 M⁻¹ s⁻¹
- Kd [2]: 0.362 nM
B3: HAb18 (antibody, V domains shown)
VH: EVKLEESGGGLVQPGGSMKLSCVASGFTFSDAWMDWVRQSPEKGLEWVAEIRSKANNHAPYYTESVKGRFTISRDDSKSIIYLQMNNLRAEDTGIYYCTRDSTATHWGQGT
VL: B1 VL
notes: Murine monoclonal antibody from hybridoma CGMCC NO; 0426; The variable domains are tied to HAb18 through cHAb18, whose variable domains are 'derived from HAb18'; also called original mouse antibody HAb18; anti-CD147 murine monoclonal antibody HAb18
